Results from US20230416330A1, “Optimized GIP Peptide Analogues” (Antag Therapeutics ApS, priority 2019, published 2023).
No end group written: not given here. *: point of attachment. C16 diacid = O=C(O)CCCCCCCCCCCCCCC(=O)*

T1: human GIP receptor (human, UniProt P48546 22-466)
T1 sequence (looked up): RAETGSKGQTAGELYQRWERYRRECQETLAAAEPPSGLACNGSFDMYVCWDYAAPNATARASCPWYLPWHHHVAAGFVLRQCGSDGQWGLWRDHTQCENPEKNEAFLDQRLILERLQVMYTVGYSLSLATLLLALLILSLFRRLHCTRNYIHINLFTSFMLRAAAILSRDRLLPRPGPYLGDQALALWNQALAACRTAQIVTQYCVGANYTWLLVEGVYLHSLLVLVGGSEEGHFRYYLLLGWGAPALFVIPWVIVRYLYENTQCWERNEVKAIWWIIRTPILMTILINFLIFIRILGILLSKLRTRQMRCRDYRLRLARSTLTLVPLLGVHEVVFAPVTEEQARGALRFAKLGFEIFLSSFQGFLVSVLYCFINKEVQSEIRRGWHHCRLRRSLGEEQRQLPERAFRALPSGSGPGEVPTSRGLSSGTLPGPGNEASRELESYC

B1: AT746 (peptide)
peptide: EGTFISDYAIAMDKIK(C16 diacid)QQDFVEWLLAQKPSSGAPPPS-OH
modifications: N-terminus assumed
SMILES: CC[C@H](C)[C@H](NC(=O)[C@H](C)NC(=O)[C@H](Cc1ccc(O)cc1)NC(=O)[C@H](CC(=O)O)NC(=O)[C@H](CO)NC(=O)[C@@H](NC(=O)[C@H](Cc1ccccc1)NC(=O)[C@@H](NC(=O)CNC(=O)[C@@H](N)CCC(=O)O)[C@@H](C)O)[C@@H](C)CC)C(=O)N[C@@H](C)C(=O)N[C@@H](CCSC)C(=O)N[C@@H](CC(=O)O)C(=O)N[C@@H](CCCCN)C(=O)N[C@H](C(=O)N[C@@H](CCCCNC(=O)CCCCCCCCCCCCCCC(=O)O)C(=O)N[C@@H](CCC(N)=O)C(=O)N[C@@H](CCC(N)=O)C(=O)N[C@@H](CC(=O)O)C(=O)N[C@@H](Cc1ccccc1)C(=O)N[C@H](C(=O)N[C@@H](CCC(=O)O)C(=O)N[C@@H](Cc1c[nH]c2ccccc12)C(=O)N[C@@H](CC(C)C)C(=O)N[C@@H](CC(C)C)C(=O)N[C@@H](C)C(=O)N[C@@H](CCC(N)=O)C(=O)N[C@@H](CCCCN)C(=O)N1CCC[C@H]1C(=O)N[C@@H](CO)C(=O)N[C@@H](CO)C(=O)NCC(=O)N[C@@H](C)C(=O)N1CCC[C@H]1C(=O)N1CCC[C@H]1C(=O)N1CCC[C@H]1C(=O)N[C@@H](CO)C(=O)O)C(C)C)[C@@H](C)CC
B2: AT740 (peptide)
peptide: EGTFISDYSIK(C16 diacid)MDKIHQQDFVEWLLAQKPSSGAPPPS-OH
modifications: N-terminus assumed
SMILES: CC[C@H](C)[C@H](NC(=O)[C@H](CCCCN)NC(=O)[C@H](CC(=O)O)NC(=O)[C@H](CCSC)NC(=O)[C@H](CCCCNC(=O)CCCCCCCCCCCCCCC(=O)O)NC(=O)[C@@H](NC(=O)[C@H](CO)NC(=O)[C@H](Cc1ccc(O)cc1)NC(=O)[C@H](CC(=O)O)NC(=O)[C@H](CO)NC(=O)[C@@H](NC(=O)[C@H](Cc1ccccc1)NC(=O)[C@@H](NC(=O)CNC(=O)[C@@H](N)CCC(=O)O)[C@@H](C)O)[C@@H](C)CC)[C@@H](C)CC)C(=O)N[C@@H](Cc1c[nH]cn1)C(=O)N[C@@H](CCC(N)=O)C(=O)N[C@@H](CCC(N)=O)C(=O)N[C@@H](CC(=O)O)C(=O)N[C@@H](Cc1ccccc1)C(=O)N[C@H](C(=O)N[C@@H](CCC(=O)O)C(=O)N[C@@H](Cc1c[nH]c2ccccc12)C(=O)N[C@@H](CC(C)C)C(=O)N[C@@H](CC(C)C)C(=O)N[C@@H](C)C(=O)N[C@@H](CCC(N)=O)C(=O)N[C@@H](CCCCN)C(=O)N1CCC[C@H]1C(=O)N[C@@H](CO)C(=O)N[C@@H](CO)C(=O)NCC(=O)N[C@@H](C)C(=O)N1CCC[C@H]1C(=O)N1CCC[C@H]1C(=O)N1CCC[C@H]1C(=O)N[C@@H](CO)C(=O)O)C(C)C
B3: AT742 (peptide)
peptide: EGTFISDYSIAMDKK(C16 diacid)HQQDFVEWLLAQKPSSGAPPPS-OH
modifications: N-terminus assumed
SMILES: CC[C@H](C)[C@H](NC(=O)[C@H](CO)NC(=O)[C@H](Cc1ccc(O)cc1)NC(=O)[C@H](CC(=O)O)NC(=O)[C@H](CO)NC(=O)[C@@H](NC(=O)[C@H](Cc1ccccc1)NC(=O)[C@@H](NC(=O)CNC(=O)[C@@H](N)CCC(=O)O)[C@@H](C)O)[C@@H](C)CC)C(=O)N[C@@H](C)C(=O)N[C@@H](CCSC)C(=O)N[C@@H](CC(=O)O)C(=O)N[C@@H](CCCCN)C(=O)N[C@@H](CCCCNC(=O)CCCCCCCCCCCCCCC(=O)O)C(=O)N[C@@H](Cc1c[nH]cn1)C(=O)N[C@@H](CCC(N)=O)C(=O)N[C@@H](CCC(N)=O)C(=O)N[C@@H](CC(=O)O)C(=O)N[C@@H](Cc1ccccc1)C(=O)N[C@H](C(=O)N[C@@H](CCC(=O)O)C(=O)N[C@@H](Cc1c[nH]c2ccccc12)C(=O)N[C@@H](CC(C)C)C(=O)N[C@@H](CC(C)C)C(=O)N[C@@H](C)C(=O)N[C@@H](CCC(N)=O)C(=O)N[C@@H](CCCCN)C(=O)N1CCC[C@H]1C(=O)N[C@@H](CO)C(=O)N[C@@H](CO)C(=O)NCC(=O)N[C@@H](C)C(=O)N1CCC[C@H]1C(=O)N1CCC[C@H]1C(=O)N1CCC[C@H]1C(=O)N[C@@H](CO)C(=O)O)C(C)C
B4: AT744 (peptide)
peptide: EGTFISDYSIAMDKIHQQDFVEWLLAQKPSSGAPPPSK(C16 diacid)-OH
modifications: N-terminus assumed
SMILES: CC[C@H](C)[C@H](NC(=O)[C@H](CO)NC(=O)[C@H](Cc1ccc(O)cc1)NC(=O)[C@H](CC(=O)O)NC(=O)[C@H](CO)NC(=O)[C@@H](NC(=O)[C@H](Cc1ccccc1)NC(=O)[C@@H](NC(=O)CNC(=O)[C@@H](N)CCC(=O)O)[C@@H](C)O)[C@@H](C)CC)C(=O)N[C@@H](C)C(=O)N[C@@H](CCSC)C(=O)N[C@@H](CC(=O)O)C(=O)N[C@@H](CCCCN)C(=O)N[C@H](C(=O)N[C@@H](Cc1c[nH]cn1)C(=O)N[C@@H](CCC(N)=O)C(=O)N[C@@H](CCC(N)=O)C(=O)N[C@@H](CC(=O)O)C(=O)N[C@@H](Cc1ccccc1)C(=O)N[C@H](C(=O)N[C@@H](CCC(=O)O)C(=O)N[C@@H](Cc1c[nH]c2ccccc12)C(=O)N[C@@H](CC(C)C)C(=O)N[C@@H](CC(C)C)C(=O)N[C@@H](C)C(=O)N[C@@H](CCC(N)=O)C(=O)N[C@@H](CCCCN)C(=O)N1CCC[C@H]1C(=O)N[C@@H](CO)C(=O)N[C@@H](CO)C(=O)NCC(=O)N[C@@H](C)C(=O)N1CCC[C@H]1C(=O)N1CCC[C@H]1C(=O)N1CCC[C@H]1C(=O)N[C@@H](CO)C(=O)N[C@@H](CCCCNC(=O)CCCCCCCCCCCCCCC(=O)O)C(=O)O)C(C)C)[C@@H](C)CC
B5: AT741 (peptide)
peptide: EGTFISDYSIAMDK(C16 diacid)IHQQDFVEWLLAQKPSSGAPPPS-OH
modifications: N-terminus assumed
SMILES: CC[C@H](C)[C@H](NC(=O)[C@H](CO)NC(=O)[C@H](Cc1ccc(O)cc1)NC(=O)[C@H](CC(=O)O)NC(=O)[C@H](CO)NC(=O)[C@@H](NC(=O)[C@H](Cc1ccccc1)NC(=O)[C@@H](NC(=O)CNC(=O)[C@@H](N)CCC(=O)O)[C@@H](C)O)[C@@H](C)CC)C(=O)N[C@@H](C)C(=O)N[C@@H](CCSC)C(=O)N[C@@H](CC(=O)O)C(=O)N[C@@H](CCCCNC(=O)CCCCCCCCCCCCCCC(=O)O)C(=O)N[C@H](C(=O)N[C@@H](Cc1c[nH]cn1)C(=O)N[C@@H](CCC(N)=O)C(=O)N[C@@H](CCC(N)=O)C(=O)N[C@@H](CC(=O)O)C(=O)N[C@@H](Cc1ccccc1)C(=O)N[C@H](C(=O)N[C@@H](CCC(=O)O)C(=O)N[C@@H](Cc1c[nH]c2ccccc12)C(=O)N[C@@H](CC(C)C)C(=O)N[C@@H](CC(C)C)C(=O)N[C@@H](C)C(=O)N[C@@H](CCC(N)=O)C(=O)N[C@@H](CCCCN)C(=O)N1CCC[C@H]1C(=O)N[C@@H](CO)C(=O)N[C@@H](CO)C(=O)NCC(=O)N[C@@H](C)C(=O)N1CCC[C@H]1C(=O)N1CCC[C@H]1C(=O)N1CCC[C@H]1C(=O)N[C@@H](CO)C(=O)O)C(C)C)[C@@H](C)CC
B6: AT745 (peptide)
peptide: EGTFISDYSIAMDKIK(C16 diacid)QQAFVEWLLAQKPSSGAPPPS-OH
modifications: N-terminus assumed
SMILES: CC[C@H](C)[C@H](NC(=O)[C@H](CO)NC(=O)[C@H](Cc1ccc(O)cc1)NC(=O)[C@H](CC(=O)O)NC(=O)[C@H](CO)NC(=O)[C@@H](NC(=O)[C@H](Cc1ccccc1)NC(=O)[C@@H](NC(=O)CNC(=O)[C@@H](N)CCC(=O)O)[C@@H](C)O)[C@@H](C)CC)C(=O)N[C@@H](C)C(=O)N[C@@H](CCSC)C(=O)N[C@@H](CC(=O)O)C(=O)N[C@@H](CCCCN)C(=O)N[C@H](C(=O)N[C@@H](CCCCNC(=O)CCCCCCCCCCCCCCC(=O)O)C(=O)N[C@@H](CCC(N)=O)C(=O)N[C@@H](CCC(N)=O)C(=O)N[C@@H](C)C(=O)N[C@@H](Cc1ccccc1)C(=O)N[C@H](C(=O)N[C@@H](CCC(=O)O)C(=O)N[C@@H](Cc1c[nH]c2ccccc12)C(=O)N[C@@H](CC(C)C)C(=O)N[C@@H](CC(C)C)C(=O)N[C@@H](C)C(=O)N[C@@H](CCC(N)=O)C(=O)N[C@@H](CCCCN)C(=O)N1CCC[C@H]1C(=O)N[C@@H](CO)C(=O)N[C@@H](CO)C(=O)NCC(=O)N[C@@H](C)C(=O)N1CCC[C@H]1C(=O)N1CCC[C@H]1C(=O)N1CCC[C@H]1C(=O)N[C@@H](CO)C(=O)O)C(C)C)[C@@H](C)CC
B7: AT739 (peptide)
peptide: EGTFISDYSK(C16 diacid)AMDKIHQQDFVEWLLAQKPSSGAPPPS-OH
modifications: N-terminus assumed
SMILES: CC[C@H](C)[C@H](NC(=O)[C@H](CCCCN)NC(=O)[C@H](CC(=O)O)NC(=O)[C@H](CCSC)NC(=O)[C@H](C)NC(=O)[C@H](CCCCNC(=O)CCCCCCCCCCCCCCC(=O)O)NC(=O)[C@H](CO)NC(=O)[C@H](Cc1ccc(O)cc1)NC(=O)[C@H](CC(=O)O)NC(=O)[C@H](CO)NC(=O)[C@@H](NC(=O)[C@H](Cc1ccccc1)NC(=O)[C@@H](NC(=O)CNC(=O)[C@@H](N)CCC(=O)O)[C@@H](C)O)[C@@H](C)CC)C(=O)N[C@@H](Cc1c[nH]cn1)C(=O)N[C@@H](CCC(N)=O)C(=O)N[C@@H](CCC(N)=O)C(=O)N[C@@H](CC(=O)O)C(=O)N[C@@H](Cc1ccccc1)C(=O)N[C@H](C(=O)N[C@@H](CCC(=O)O)C(=O)N[C@@H](Cc1c[nH]c2ccccc12)C(=O)N[C@@H](CC(C)C)C(=O)N[C@@H](CC(C)C)C(=O)N[C@@H](C)C(=O)N[C@@H](CCC(N)=O)C(=O)N[C@@H](CCCCN)C(=O)N1CCC[C@H]1C(=O)N[C@@H](CO)C(=O)N[C@@H](CO)C(=O)NCC(=O)N[C@@H](C)C(=O)N1CCC[C@H]1C(=O)N1CCC[C@H]1C(=O)N1CCC[C@H]1C(=O)N[C@@H](CO)C(=O)O)C(C)C

Molecular target: T1, human GIP receptor
Assay: cell-based or functional assay

| Binder | nM (Kb, Gaddum assay, cAMP) [nM] | pKb (Gaddum assay, cAMP) |
| --- | --- | --- |
| B1 | 0.97 | 9 |
| B2 | 14 | 7.9 |
| B3 | 32 | 7.5 |
| B4 | 4.8 | 8.3 |
| B5 | 11 | 7.9 |
| B6 | 0.49 | 9.3 |
| B7 | 11 | 7.9 |
